Laboratory results taken from the supplement of paper PMC10126150.
± gives the standard deviation of the averaged measurements.

Tested on: ATP
Test: switch fluorescence ratio, 500 uM ATP over buffer (Cy3 cluster intensity, sum of 5 cycles each) (fold (ratio)); higher = stronger signal-on switching upon ATP binding; sequences stand for … in TCGTCGGCAGCGTCAGATGTGTATAAGAGACAGTTTTTTTTTTTTTTTTTTTTTTTTT…TC
Details: aptamer strand: ATP DNA aptamer (quencher-CACCTGGGGGAGTATTGCGGAGGAAGG + anchor), 100 nM annealed; ATP concentration: 500 uM
In short: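 Clusters carrying Cy3-labelled switching strands on a modified Illumina MiSeq flow-cell were annealed to 100 nM quencher-labelled ATP aptamer and imaged in selection buffer. They were imaged again after 15 min with 500 uM ATP at 22 °C, over five buffer/ATP cycles with NaOH stripping and re-annealing in between. For each cluster, the fluorescence ratio is the summed Cy3 intensity of the target cycles divided by that of the buffer cycles, averaged per switch-domain sequence. Clusters outside 100-1000 RFU were left out.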
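Further: ATP exposure 15 min at 22 °C before imaging.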

| Sequence | switch fluorescence ratio |
| --- | --- |
| GGTGACCGTT | 0.992 ± 0.012 |
| GTTAAATCTT | 1 ± 0.042 |
| GGGATAATTT | 0.988 ± 0.017 |
| CACTAGAAGC | 1.037 ± 0.0012 |
| CCTATAATAT | 1.05 ± 0.024 |
| GAGAGTTGTG | 0.988 ± 0.034 |
| ATATTAGGTC | 1.01 ± 0.016 |
| GGCTTAAGAT | 0.998 ± 0.017 |
| CCGAAGGTTA | 1.09 ± 0.032 |
| GAAATTCCGA | 1.85 ± 1.1 |
| CCTTGTATTT | 1.01 ± 0.018 |
| AAGTTGAATT | 0.99 ± 0.029 |
| TAACGGGTCG | 0.937 ± 0.06 |
| TGAGACATGC | 0.994 ± 0.038 |
| GACGCACGAA | 1.58 ± 0.057 |
| AGCTGCCCCA | 1.18 ± 0.13 |
| GATACCTTTG | 1.72 ± 1 |
| CGGAGGACAA | 0.976 ± 0.012 |
| CTGTAGACGG | 1.05 ± 0.014 |
| GGACTTAATG | 1.02 ± 0.016 |
| AGTATCACGG | 1.011 ± 0.0068 |
| ATGTAATCAC | 1.04 ± 0.049 |
| ATTATGGGGG | 0.996 ± 0.036 |
| CACGATTTGG | 0.995 ± 0.014 |
| ATTCCAAGTG | 1.03 ± 0.056 |

| Sequence | switch fluorescence ratio |
| --- | --- |
| TATACGAAAT | 1.49 ± 0.58 |
| TTGACATGC | 1.01 ± 0.044 |
| TTACCGGGCA | 1.033 ± 0.0093 |
| TTTGTGTTAG | 0.9983 ± 0.0082 |
| TCGTTGGGAT | 0.986 ± 0.053 |
| CCGTAATAGG | 4.83 ± 0.55 |
| TAAATTACTA | 1.05 ± 0.04 |
| AGGATGAAAT | 0.992 ± 0.051 |
| CGTTTGTGCA | 0.98971 ± 6.6e-05 |
| TAGTTGACTG | 1.04 ± 0.072 |
| ATGTTATGAA | 1.06 ± 0.11 |
| TTGTTGAGAA | 0.995 ± 0.056 |
| GTTACATTAA | 1.01 ± 0.021 |
| GGTTTCGCCG | 0.985 ± 0.052 |
| TATCTAGGTC | 0.954 ± 0.086 |
| AAGGAAGTGC | 1.003 ± 0.0086 |
| TGTTCTCGGA | 1.006 ± 0.0097 |
| GTTCGGAGTG | 0.9877 ± 0.0086 |
| TGGTTTGGTA | 0.961 ± 0.011 |
| GACGGCTGTA | 0.991 ± 0.015 |
| GATATTTCGG | 1.011 ± 0.0024 |
| GAAGCTCCTG | 0.996 ± 0.0043 |
| TAGATTGGCG | 0.981 ± 0.043 |
| TCTTTCGGTG | 1.02 ± 0.04 |
| TAAAAACGAC | 1.04 ± 0.051 |

| Sequence | switch fluorescence ratio |
| --- | --- |
| TTTCATAGTT | 0.954 ± 0.017 |
| CCGGAGGGAG | 1.0201 ± 0.0006 |
| CTGGCTGTCT | 1.02 ± 0.036 |
| GGTGGGTCGT | 1.014 ± 0.0095 |
| AATCGGGAGG | 0.963 ± 0.062 |
| TAATGGGCGA | 0.976 ± 0.064 |
| GGGACTGCGT | 0.9624 ± 0.0072 |
| AGTTTATCAT | 0.9996 ± 0.0089 |
| AACAGGACGC | 1.08 ± 0.1 |
| GTAAGAAAGA | 1.02 ± 0.015 |
| ACATTAATTC | 0.99573 ± 0.00079 |
| GCGCGATATT | 2.17 ± 0.21 |
| GAACTAAGGA | 0.9895 ± 0.0027 |
| GTGTTAGGCT | 0.978 ± 0.012 |
| GAAAAGGGCG | 1.01 ± 0.022 |
| AAGCAATGGG | 1.45 ± 0.037 |
| CGCGCGGATT | 1.04 ± 0.034 |
| ATTCTATATC | 0.97 ± 0.021 |
| CAGTTTGGGT | 1.01 ± 0.081 |
| TTTCTGGCAA | 1.32 ± 0.38 |
| AACTTTCCTC | 2.49 ± 0.076 |
| ACCCGAGCAC | 2.13 ± 0.054 |
| TGGGAAAGCC | 0.981 ± 0.012 |
| TGATGCCGAA | 1.022 ± 0.0034 |
| AGGGGGTACT | 1 ± 0.011 |

| Sequence | switch fluorescence ratio |
| --- | --- |
| GGTCTGATGG | 0.987 ± 0.035 |
| GATCAGTGGC | 1.05 ± 0.071 |
| CAATAAAACA | 0.972 ± 0.013 |
| TTGGAGTACT | 1.09 ± 0.24 |
| TAGGGCACGG | 1.02 ± 0.035 |
| TTAAGGGGCT | 1.01 ± 0.018 |
| TGGTTCGGTG | 0.977 ± 0.016 |
| TTTTCCTACG | 2.38 ± 1.6 |
| ACATCAGAAG | 1.02 ± 0.039 |
| AGGGAATCGG | 0.976 ± 0.03 |
| AGTGACGGTT | 0.977 ± 0.021 |
| CTTGTGAAA | 1.009 ± 0.0082 |
| GAGAGATGTT | 0.999 ± 0.021 |
| TTGCTCCCAC | 1.62 ± 0.81 |
| TAGATATGGT | 0.989 ± 0.021 |
| ACGGGTTAGA | 1.02 ± 0.036 |
| CATTGTTGTT | 1.01 ± 0.0098 |
| CGTGGATGGT | 0.9933 ± 0.0032 |
| CGATATGTCG | 1.41 ± 0.33 |
| TTACTTCATA | 1.021 ± 0.0045 |
| ACTTTGCCAC | 1.18 ± 0.016 |
| TTTGGTGATT | 0.982 ± 0.025 |
| AGGAAGTGTG | 0.9869 ± 0.0079 |
| TAATGGGCTT | 0.997 ± 0.012 |
| AGGTAAGAGG | 0.96 ± 0.026 |

| Sequence | switch fluorescence ratio |
| --- | --- |
| TATGGTCTTT | 0.979 ± 0.019 |
| AGATTGATGG | 0.9848 ± 0.0026 |
| GTTGTTGGGA | 0.9898 ± 0.003 |
| CTGTGTGAAG | 1 ± 0.038 |
| AACACAGGTA | 1.06 ± 0.013 |
| ATTTTATTAT | 1.01 ± 0.024 |
| TAAGAGGAGG | 0.98337 ± 0.00017 |
| ACGCGACACC | 1.25 ± 0.058 |
| GGGGAAACAA | 0.99 ± 0.024 |
| CGTATTCTGT | 0.9845 ± 0.0037 |
| CATCTAGCAC | 2.63 ± 0.42 |
| TTTAACTGA | 1.04 ± 0.044 |
| TAGGGTGTTG | 1.01 ± 0.021 |
| TTTAAGGGTT | 1.02 ± 0.054 |
| ACGAAGATGC | 1.24 ± 0.15 |
| GGCGTCCTGG | 1.03 ± 0.029 |
| GGGGGCCTGG | 0.979 ± 0.019 |
| GATTAAAAGT | 0.969 ± 0.011 |
| CATTGGTGTG | 0.985 ± 0.047 |
| CAGTATGGGA | 0.999 ± 0.02 |
| TGCCTCTTTT | 0.9886 ± 0.006 |
| TGTCGTGTAG | 1.01 ± 0.0094 |
| GCCGAAGCTG | 1.08 ± 0.003 |
| TAGATGAGAG | 0.969 ± 0.012 |
| CTGAAACAGC | 1.06 ± 0.043 |

| Sequence | switch fluorescence ratio |
| --- | --- |
| CCAAGCGCCG | 1.12 ± 0.13 |
| GGGCCGGTTT | 1 ± 0.026 |
| AAGCCGTGGC | 0.975 ± 0.11 |
| TACAGTGGAG | 1.011 ± 0.0044 |
| ATTATTGGGC | 0.981 ± 0.035 |
| CGGTGTGCCT | 0.966 ± 0.029 |
| CAGGGTTCGT | 0.9894 ± 0.0081 |
| TATATGAGTT | 0.963 ± 0.0099 |
| AAGTTGAGGG | 0.975 ± 0.035 |
| CAGGGTTTGG | 1.01 ± 0.023 |
| TGGGGGGTCT | 1.02 ± 0.057 |
| AAGTCGGCTG | 0.9757 ± 0.002 |
| GTTAGTATTG | 0.998 ± 0.021 |
| TGGGTGAATT | 0.98 ± 0.017 |
| AATTTTAGTG | 0.986 ± 0.02 |
| TGTTAGTTCT | 1.02 ± 0.0089 |
| TGGGGTCTGA | 0.974 ± 0.017 |
| CGTAATATTA | 1.07 ± 0.01 |
| GCATATTAGG | 0.999 ± 0.03 |
| TTTGGTATGA | 0.9736 ± 0.0021 |
| GCGAATATCC | 1.11 ± 0.017 |
| ACCAAGCCAT | 1.09 ± 0.077 |
| GTAAGAGGAA | 1.01 ± 0.044 |
| TTTTTGTACG | 0.998 ± 0.025 |
| GAGTGGCTGG | 0.979 ± 0.014 |

| Sequence | switch fluorescence ratio |
| --- | --- |
| CTCGTTGGGG | 0.979 ± 0.015 |
| GGTATACTTA | 1.04 ± 0.0075 |
| CAATAGGGGG | 1 ± 0.027 |
| TATCTGGGCA | 1.06 ± 0.087 |
| GGGGTTATTC | 0.986 ± 0.026 |
| GATTTAGGTA | 0.968 ± 0.027 |
| TACCTTTTGG | 0.99 ± 0.026 |
| TTAGACGTTC | 0.99809 ± 0.00032 |
| TTGATTCAAT | 1.17 ± 0.33 |
| GGTTTCCAAT | 1 ± 0.02 |
| TACAAATGTT | 1 ± 0.018 |
| CTGCAAGGGA | 1.06 ± 0.051 |
| GGCACATTTT | 1.01 ± 0.022 |
| ATCTTGTGGG | 0.9678 ± 0.0064 |
| GGCCCCATGC | 1.24 ± 0.034 |
| GTTGAATTAT | 0.987 ± 0.016 |
| TTAATTTATC | 0.9982 ± 0.0026 |
| TAGGACGCGG | 1.04 ± 0.052 |
| GGTTGTTGAG | 0.987 ± 0.052 |
| GGGCCTGGTA | 0.973 ± 0.03 |
| TAGTAACATA | 1.006 ± 0.0036 |
| ATACTTACTT | 1.197 ± 0.011 |
| AGCCGGACGC | 1.066 ± 0.0075 |
| AGGAGTGGTG | 0.994 ± 0.034 |
| GTGTTTATAG | 0.993 ± 0.018 |

| Sequence | switch fluorescence ratio |
| --- | --- |
| TGGATTAAGT | 1.02 ± 0.042 |
| GCCTTGTATG | 0.976 ± 0.03 |
| GGAGGACTCG | 0.982 ± 0.05 |
| GCCATTGTTG | 0.998 ± 0.018 |
| CGTCATTGGG | 0.992 ± 0.045 |
| GGTTAACTGG | 0.991 ± 0.023 |
| ATTTACGGCA | 1.11 ± 0.021 |
| CGCCGCACTT | 3.93 ± 1.1 |
| GAGGCGACGT | 0.963 ± 0.027 |
| TGTATCTCTG | 1.02 ± 0.02 |
| TTCTTAAAAA | 0.993 ± 0.026 |
| TAATTTTAAT | 1.025 ± 0.0087 |
| AAGTTGCTGG | 0.985 ± 0.019 |
| GGGGGGTTGC | 0.967 ± 0.035 |
| TGAGGTGTTT | 0.992 ± 0.023 |
| GATTAGCCGG | 0.99 ± 0.015 |
| TGGGGTAAGA | 1.02 ± 0.015 |
| GACGGTTTAC | 1.65 ± 0.023 |
| CGCCATGGAA | 1 ± 0.017 |
| TTGCTTACGG | 1.02 ± 0.013 |
| GATGGGTG | 1.03 ± 0.082 |
| ATTGGCTTTT | 0.965 ± 0.011 |
| ACAATTGGTC | 1.02 ± 0.034 |
| CTATACTTGG | 0.98716 ± 0.00098 |
| GGGGTCAGGT | 1 ± 0.024 |
